According to patent US20230192854A1 (SHANGHAI JUNSHI BIOSCIENCES, published 2023):

T1: murine BTLA (murine, UniProt Q7TSA3 30-183, limits assumed)
T1 sequence (looked up): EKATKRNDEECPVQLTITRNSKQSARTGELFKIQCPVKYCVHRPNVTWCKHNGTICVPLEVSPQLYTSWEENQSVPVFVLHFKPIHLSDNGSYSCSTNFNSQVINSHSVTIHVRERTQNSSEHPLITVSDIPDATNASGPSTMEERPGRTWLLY

T2: recombinant human FcγRIIA (CD32a) R167 (human, UniProt P12318 36-218)
T2 sequence (looked up): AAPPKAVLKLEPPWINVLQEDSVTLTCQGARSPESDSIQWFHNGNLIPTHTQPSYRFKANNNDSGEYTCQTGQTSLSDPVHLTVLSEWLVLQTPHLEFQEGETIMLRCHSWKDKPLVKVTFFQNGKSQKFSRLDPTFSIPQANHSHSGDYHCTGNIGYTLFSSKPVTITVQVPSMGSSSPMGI

B1: humanized anti-BTLA antibody hu17 (antibody, V domains shown)
VH: QVQLVQSGAEVKKPGASVKLSCKASGYNFKHTYAHWVRQAPGQGLEWIGRIDPANGNTKYDPKFQGRATMTADTASNTAYLELSSLRSEDTAVYYCVADHYGSSLLDYWGQGTLVTVSS
VL: DIVMTQTPLSLSVTPGQPASISCKSSQSLLDSDGKTYLNWFQQRPGQSPRRLIYLVSKLDSGVPDRFSGSGSGTDFTLKISRVEAEDVGVYYCWQGTYFPYTFGQGTKLEIK
notes: Called a full humanized antibody; also called hul7; hull
B2: humanized anti-BTLA antibody hu19 (antibody, V domains shown)
VH: QVQLVQSGAEVKKPGASVKLSCKASGYNFKHTYAHWVRQAPGQGLEWIGRIDPANGNTKYDPKFQGRATMTADTASNTAYLELSSLRSEDTAVYYCVADHYGSSLLDYWGQGTLVTVSS
VL: DIVMTQTPLSLSVTPGQPASISCKSSQSLLDSDGKTYLNWFQQRPGQSPRRLMHLVSKLDSGVPDRFSGSGSGTDFTLKISRVEAEDVGVYYCWQGTYFPYTFGQGTKLEIK
B3: recombinant humanized anti-BTLA monoclonal antibody hu18 (antibody, human IgG4 S228P, kappa)
heavy: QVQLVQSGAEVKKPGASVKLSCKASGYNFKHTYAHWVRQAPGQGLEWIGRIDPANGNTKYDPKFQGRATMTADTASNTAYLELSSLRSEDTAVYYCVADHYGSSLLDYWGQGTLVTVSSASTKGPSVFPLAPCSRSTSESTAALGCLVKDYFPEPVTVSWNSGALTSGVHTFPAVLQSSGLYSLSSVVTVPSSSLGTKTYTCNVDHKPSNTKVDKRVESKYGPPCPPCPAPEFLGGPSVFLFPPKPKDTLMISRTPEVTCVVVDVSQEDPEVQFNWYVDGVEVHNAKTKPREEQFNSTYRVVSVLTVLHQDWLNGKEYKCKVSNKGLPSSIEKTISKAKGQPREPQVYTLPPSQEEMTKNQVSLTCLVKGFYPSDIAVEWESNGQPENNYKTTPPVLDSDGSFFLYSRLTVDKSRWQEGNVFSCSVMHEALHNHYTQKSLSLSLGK
light: DVVMTQTPLSLSVTPGQPASISCKSSQSLLDSDGKTYLNWFQQRPGQSPRRLIYLVSKLDSGVPDRFSGSGSGTDFTLKISRVEAEDVGVYYCWQGTYFPYTFGQGTKLEIKRTVAAPSVFIFPPSDEQLKSGTASVVCLLNNFYPREAKVQWKVDNALQSGNSQESVTEQDSKDSTYSLSSTLTLSKADYEKHKVYACEVTHQGLSSPVTKSFNRGEC
notes: also called recombinant human anti-BTLA antibody of the IgG4 subtype

What was measured:
hBTLA expressed on cells = hBTLA expressed on cells (human, UniProt Q7Z6A9 31-289); assay: cell-based or functional assay
murine BTLA = target: T1, murine BTLA; assay: OD 450 nm against log ng/mL of antibody (ELISA-type readout as drawn; Example 11 describes a Fortebio/SPR chip assay with BTLA coupled to the chip)
human C1q = target: T3, human C1q (human, UniProt P02745 23-245; P02746 28-253; P02747 29-245); assay: C1q binding assay, method not described (Table 18: 'Non-specific binding')
T3 construct: also called C1q protein
T3 sequence (P02745 23-245 limits assumed, chain 1 of 3): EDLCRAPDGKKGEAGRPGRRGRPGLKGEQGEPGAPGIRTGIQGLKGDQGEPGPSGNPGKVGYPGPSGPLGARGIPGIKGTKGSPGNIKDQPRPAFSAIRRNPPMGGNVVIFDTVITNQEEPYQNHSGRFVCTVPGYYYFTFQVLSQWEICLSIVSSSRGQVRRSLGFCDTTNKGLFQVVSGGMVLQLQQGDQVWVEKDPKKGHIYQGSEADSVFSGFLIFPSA
T3 sequence (P02746 28-253 limits assumed, chain 2 of 3): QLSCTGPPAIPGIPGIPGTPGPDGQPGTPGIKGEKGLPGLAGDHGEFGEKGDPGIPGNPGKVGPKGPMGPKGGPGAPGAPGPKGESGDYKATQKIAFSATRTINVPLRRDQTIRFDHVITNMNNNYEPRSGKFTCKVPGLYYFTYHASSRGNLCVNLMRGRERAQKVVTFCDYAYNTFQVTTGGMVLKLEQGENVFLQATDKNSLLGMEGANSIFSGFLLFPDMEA
T3 sequence (P02747 29-245 limits assumed, chain 3 of 3): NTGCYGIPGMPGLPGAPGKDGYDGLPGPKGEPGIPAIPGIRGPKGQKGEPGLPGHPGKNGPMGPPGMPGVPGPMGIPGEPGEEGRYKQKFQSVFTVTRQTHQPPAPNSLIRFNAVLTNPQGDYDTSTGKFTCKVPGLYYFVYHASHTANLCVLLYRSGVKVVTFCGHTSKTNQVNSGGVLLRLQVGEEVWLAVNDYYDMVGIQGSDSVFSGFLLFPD

[1] = target: T2, recombinant human FcγRIIA (CD32a) R167; assay: SPR, Biacore T200; Fc receptor captured on anti-His antibody, antibody injected
Excerpt: (§1) ADCC is initiated when an antibody binds to a cell surface target protein and then links to an Fc γ receptor (FcγR) expressed on effector cells. […] In conjunction with ADCC, CDC is activated when antibodies cross-link the cell surface target and C1q protein, followed by a cascade reaction of complement complex formation and target cell lysis. As a proxy for ADCC and CDC, the detection of antibody binding to FcγR and C1q may serve as basic indicators of ADCC and CDC. Thus, in the present invention, the kinetic binding affinity of monoclonal antibodies for major FcγRs was evaluated using biacore T200 (GE).
(§2) Anti-His antibody (GE) was immobilized on the sensor wafer. Various Fc receptors, including recombinant human FcγRIIIA (CD16a) V176, recombinant human FcγRIIA (CD32a) R167, recombinant human FcγRI (CD64) and recombinant human FcRn were captured, then a series of diluted recombinant human anti-BTLA antibodies (i.e., hu18) were injected, and the binding properties of the interactions were assayed and analyzed. hu18 is an IgG4 subtype, and hu18-IgG1 is an IgG1 subtype that shares the same Fab as hu18 and serves as a positive control.

recombinant human FcRn = target: T4, recombinant human FcRn (human, UniProt P55899 24-297; P61769 21-119); assay: as above
T4 construct: Captured on an anti-His antibody
T4 sequence (P55899 24-297 limits assumed, form in doubt, chain 1 of 2): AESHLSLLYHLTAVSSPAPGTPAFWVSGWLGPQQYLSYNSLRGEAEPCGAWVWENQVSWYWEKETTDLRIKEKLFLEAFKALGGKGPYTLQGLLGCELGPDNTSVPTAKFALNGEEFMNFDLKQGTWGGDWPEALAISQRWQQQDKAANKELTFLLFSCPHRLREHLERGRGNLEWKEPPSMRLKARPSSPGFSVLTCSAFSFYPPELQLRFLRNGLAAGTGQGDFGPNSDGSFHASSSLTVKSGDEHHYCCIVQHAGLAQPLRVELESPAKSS
T4 sequence (P61769 21-119 limits assumed, form in doubt, chain 2 of 2): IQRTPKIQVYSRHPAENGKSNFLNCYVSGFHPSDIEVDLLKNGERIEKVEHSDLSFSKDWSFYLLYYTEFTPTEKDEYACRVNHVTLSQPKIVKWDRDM
Excerpt: as §1, §2

[2] = target: recombinant human FcγRIIIA (CD16a) V176 (human, UniProt P08637 17-208); assay: as above
recombinant human FcγRIIIA (CD16a) V176, sequence (P08637 17-208 F176V): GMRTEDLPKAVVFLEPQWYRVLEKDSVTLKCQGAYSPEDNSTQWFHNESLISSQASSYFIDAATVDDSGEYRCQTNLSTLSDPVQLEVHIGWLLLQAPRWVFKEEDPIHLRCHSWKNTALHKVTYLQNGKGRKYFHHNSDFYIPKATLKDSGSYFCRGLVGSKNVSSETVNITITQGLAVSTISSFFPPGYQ
Excerpt: as §1, §2

[3] = target: recombinant human FcγRI (CD64) (human, UniProt P12314 16-288); assay: as above
recombinant human FcγRI (CD64), sequence (P12314 16-288 limits assumed): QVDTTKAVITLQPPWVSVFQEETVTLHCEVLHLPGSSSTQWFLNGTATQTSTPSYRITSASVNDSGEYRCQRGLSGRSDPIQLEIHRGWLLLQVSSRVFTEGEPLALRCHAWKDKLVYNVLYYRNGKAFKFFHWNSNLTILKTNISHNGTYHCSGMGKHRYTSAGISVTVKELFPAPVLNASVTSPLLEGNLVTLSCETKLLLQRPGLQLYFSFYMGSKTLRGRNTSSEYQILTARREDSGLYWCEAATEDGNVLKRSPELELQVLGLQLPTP
Excerpt: as §1, §2

| Binder | EC50 (ng/mL); NFAT-luciferase luminescence of Jurkat hPD-1/hBTLA report cells co-cultured with CHO cells expressing hPD-L1/hHVEM (hBTLA expressed on cells) | binding result (murine BTLA) | binding result (human C1q) | Kd [1] | Kd (recombinant human FcRn) | koff (recombinant human FcRn) | kon (recombinant human FcRn) | Kd [2] | fold weaker interaction than the control antibody of the IgG1 subtype (hu18-IgG1) [2] | Kd [3] | koff [3] | kon [3] |
| --- | --- | --- | --- | --- | --- | --- | --- | --- | --- | --- | --- | --- |
| B1 | 257 ng/mL | no binding (tested: 1000 ng/mL (log 3)) | – | – | – | – | – | – | – | – | – | – |
| B2 | 290 ng/mL | – | – | – | – | – | – | – | – | – | – | – |
| B3 | 277 ng/mL | – | no binding | 40.6 µM | 0.138 µM | 0.0708 s⁻¹ | 512000 M⁻¹ s⁻¹ | 60.2 µM | 400 fold | 0.0184 µM | 0.00387 s⁻¹ | 210000 M⁻¹ s⁻¹ |
